Source: US20100272685A1

What was measured:
[1] = target: AAV2/po1 hybrid vector particle (AAVpo1 capsid of VP1, VP2, VP3) (porcine adeno-associated virus AAVpo1); assay: cell-based or functional assay
[2] = target: AAV2/5 vector particle (AAV5 capsid proteins VP1, VP2, VP3) (adeno-associated virus 5); assay: cell-based or functional assay

Pooled Human Ig (Immune Globulin Intravenous (Human) Carimune NF)
concentration of the pooled Human Ig required to neutralise >50% of AAV-LacZ particles [1]: > 12 mg/mL
concentration of the pooled Human Ig required to neutralise >50% of AAV-LacZ particles [2]: 7.5e-05 mg/mL
